Measurements reported in patent US20200087380A1 (Chugai, published 2020).
“And” between values parts separate entries of the source, which are not always exact repeats. Equal values may be shown once. Read-outs that look alike come from different tables or passages of the source.

T1: hIL6R (human, UniProt P08887 20-357, limits assumed)
T1 construct: Printed as hIL6R
T1 sequence (looked up): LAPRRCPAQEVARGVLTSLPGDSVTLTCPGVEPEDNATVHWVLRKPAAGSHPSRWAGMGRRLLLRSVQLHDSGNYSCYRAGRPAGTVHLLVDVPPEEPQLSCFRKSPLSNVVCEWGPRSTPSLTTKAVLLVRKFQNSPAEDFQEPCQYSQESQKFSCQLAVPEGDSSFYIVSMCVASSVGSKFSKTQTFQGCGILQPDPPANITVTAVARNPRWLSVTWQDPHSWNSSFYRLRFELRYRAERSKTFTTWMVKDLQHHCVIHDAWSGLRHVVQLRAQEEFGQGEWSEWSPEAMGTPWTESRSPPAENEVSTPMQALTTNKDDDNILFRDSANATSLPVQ


Key:
Test in all cases: SPR (Biacore T100), antibody captured on Protein A/G chip, antigen as analyte, 25 C, 1:1 Langmuir fit
[1] = biological target: T2, GPC3 (UniProt P51654 25-563, limits assumed)
T2 construct: also called glypican-3
T2 sequence (P51654 25-563 limits assumed): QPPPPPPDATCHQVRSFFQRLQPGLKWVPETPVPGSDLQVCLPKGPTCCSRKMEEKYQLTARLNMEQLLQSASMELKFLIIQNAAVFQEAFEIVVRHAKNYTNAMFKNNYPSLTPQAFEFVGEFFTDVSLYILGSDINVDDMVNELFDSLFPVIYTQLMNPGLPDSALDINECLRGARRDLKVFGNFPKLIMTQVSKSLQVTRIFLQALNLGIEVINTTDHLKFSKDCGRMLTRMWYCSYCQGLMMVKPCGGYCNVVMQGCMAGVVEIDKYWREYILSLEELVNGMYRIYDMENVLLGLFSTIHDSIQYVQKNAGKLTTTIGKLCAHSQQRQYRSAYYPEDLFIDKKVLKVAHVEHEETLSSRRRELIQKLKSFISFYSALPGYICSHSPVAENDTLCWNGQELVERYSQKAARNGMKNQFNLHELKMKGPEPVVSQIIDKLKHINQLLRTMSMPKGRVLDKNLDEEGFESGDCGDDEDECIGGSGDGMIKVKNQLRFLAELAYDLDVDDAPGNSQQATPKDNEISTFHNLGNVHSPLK
Experimental: (§1) Interactions between a target antibody and hIL6R or GPC3 were analyzed using Biacore T100 (GE Healthcare). HBS-EP+(GE Healthcare) was used for the running buffer, and the measurement temperature was 25° C. Protein A/G (Thermo Scientific) was immobilized on the Series S Sensor Chip CMS (GE Healthcare) by amine coupling, and was used as a chip. A target antibody was captured onto the chip, and interacted with each antigen diluted with running buffer. Antibodies captured on the chip were washed off by reacting with 10 mM glycine-HCl (pH 1.5) to regenerate the chip to be used repeatedly.
(§2) More specifically, the association rate constant ka (L/mol/s) and dissociation rate constant kd (1/s) were calculated by global fitting sensorgrams obtained by measuring with the Biacore Evaluation Software in a 1:1 Langmuir binding model, followed by calculation of dissociation constant KD (mol/L) from those values.

[2] = biological target: T1, hIL6R
Experimental: as §1, §2

[3] = biological target: T2, GPC3; remark: listed apart in the source
Experimental: as §1, §2

Row | Binder | Kd [1] [nM] | koff [1] [s⁻¹] | kon [1] [M⁻¹ s⁻¹] | Kd [2] | koff [2] [s⁻¹] | kon [2] [M⁻¹ s⁻¹] | Kd [3] [nM] | koff [3] [s⁻¹] | kon [3] [M⁻¹ s⁻¹]
1 | anti-GPC3 antibody with H chain constant region TH13 (K147E, Q175E) and L chain constant region TL16 (T180K, S131K, Q160K) (antibody, human IgG1, kappa, IgG1/kappa; also called TH13/TL16) heavy: not shown light: DIVMTQSPLSLPVTPGEPASISCQASESLVHSNRNTYLHWYLQKPGQSPQLLIYKVSNRFSGVPDRFSGSGSGTDFTLKISRVEAEDVGVYYCSQNTHVPPTFGQGTKVEIERTVAAPSVFIFPPSDEQLKSGTAKVVCLLNNFYPREAKVQWKVDNALQSGNSKESVTEQDSKDSTYSLSSTLKLSKADYEKHKVYACEVTHQGLSSPVTKSFNRGEC | 1.5 | 0.0004 | 270000 |  |  |  |  |  | 
2 | 4ch_001 (anti-IL6R MH0-G1d/ML0-k0 and anti-GPC3 GpH7-G1d/GpL16-k0, no CH1/CL or KiH modification) (bispecific antibody, human IgG1, kappa, Four chains co-expressed without pairing control) heavy 1: not shown light 1: not shown heavy 2: not shown light 2: DIVMTQSPLSLPVTPGEPASISCQASESLVHSNRNTYLHWYLQKPGQSPQLLIYKVSNRFSGVPDRFSGSGSGTDFTLKISRVEAEDVGVYYCSQNTHVPPTFGQGTKVEIERTVAAPSVFIFPPSDEQLKSGTASVVCLLNNFYPREAKVQWKVDNALQSGNSQESVTEQDSKDSTYSLSSTLTLSKADYEKHKVYACEVTHQGLSSPVTKSFNRGEC |  |  |  | 2.6 nM and 2.8 nM | 0.00041 | 150000 | 1.3 | 0.00036 | 270000
3 | 4ch_004 (anti-IL6R MH0-TH2k/ML0-TL17 and anti-GPC3 GpH7-TH13h/GpL16-TL16; KiH + CH1/CL_1) (bispecific antibody, human IgG1, kappa, IgG1/kappa bispecific with knob (k) and hole (h) H chains) heavy 1: not shown light 1: not shown heavy 2: not shown light 2: DIVMTQSPLSLPVTPGEPASISCQASESLVHSNRNTYLHWYLQKPGQSPQLLIYKVSNRFSGVPDRFSGSGSGTDFTLKISRVEAEDVGVYYCSQNTHVPPTFGQGTKVEIERTVAAPSVFIFPPSDEQLKSGTAKVVCLLNNFYPREAKVQWKVDNALQSGNSKESVTEQDSKDSTYSLSSTLKLSKADYEKHKVYACEVTHQGLSSPVTKSFNRGEC |  |  |  | 2.8 nM | 0.00047 | 170000 | 1.4 | 0.00038 | 270000
4 | 4ch_006 (anti-IL6R MH0-TH2k/ML0-TL17 and anti-GPC3 GpH7-TH15h/GpL16-TL19; KiH + CH1/CL_2) (bispecific antibody, human IgG1, kappa, IgG1/kappa bispecific with knob (k) and hole (h) H chains) heavy 1: not shown light 1: not shown heavy 2: not shown light 2: DIVMTQSPLSLPVTPGEPASISCQASESLVHSNRNTYLHWYLQKPGQSPQLLIYKVSNRFSGVPDRFSGSGSGTDFTLKISRVEAEDVGVYYCSQNTHVPPTFGQGTKVEIERTVAAPSVFIFPPSDKQLKSGTAKVVCLLNNFYPREAKVQWKVDNALQSGNSKESVTEQDSKDSTYSLSSTLKLSKADYEKHKVYACEVTHQGLSSPVTKSFNRGEC |  |  |  | 2.2 nM | 0.00043 | 200000 | 1.2 | 0.00042 | 340000

Other lines, results leading:

Row | Kd [1] [nM] | koff [1] [s⁻¹] | kon [1] [M⁻¹ s⁻¹] | Kd [2] | koff [2] [s⁻¹] | kon [2] [M⁻¹ s⁻¹] | Kd [3] [nM] | koff [3] [s⁻¹] | kon [3] [M⁻¹ s⁻¹] | Binder
5 |  |  |  | 2.8 nM | 0.00046 | 160000 | 1.5 | 0.00039 | 260000 | 4ch_008 (anti-IL6R MH0-TH13k/ML0-TL16 and anti-GPC3 GpH7-TH2h/GpL16-TL17; KiH + CH1/CL_1) (bispecific antibody, human IgG1, kappa, IgG1/kappa bispecific with knob (k) and hole (h) H chains) heavy 1: not shown light 1: not shown heavy 2: not shown light 2: DIVMTQSPLSLPVTPGEPASISCQASESLVHSNRNTYLHWYLQKPGQSPQLLIYKVSNRFSGVPDRFSGSGSGTDFTLKISRVEAEDVGVYYCSQNTHVPPTFGQGTKVEIERTVAAPSVFIFPPSDEQLKSGTAEVVCLLNNFYPREAKVQWKVDNALQSGNSEESVTEQDSKDSTYSLSSTLELSKADYEKHKVYACEVTHQGLSSPVTKSFNRGEC
6 |  |  |  | 2.4 nM | 0.00059 | 240000 | 1.4 | 0.00041 | 290000 | 4ch_010 (anti-IL6R MH0-TH15k/ML0-TL19 and anti-GPC3 GpH7-TH2h/GpL16-TL17; KiH + CH1/CL_2) (bispecific antibody, human IgG1, kappa, IgG1/kappa bispecific with knob (k) and hole (h) H chains) heavy 1: not shown light 1: not shown heavy 2: not shown light 2: DIVMTQSPLSLPVTPGEPASISCQASESLVHSNRNTYLHWYLQKPGQSPQLLIYKVSNRFSGVPDRFSGSGSGTDFTLKISRVEAEDVGVYYCSQNTHVPPTFGQGTKVEIERTVAAPSVFIFPPSDEQLKSGTAEVVCLLNNFYPREAKVQWKVDNALQSGNSEESVTEQDSKDSTYSLSSTLELSKADYEKHKVYACEVTHQGLSSPVTKSFNRGEC
7 | 1.4 | 0.00039 | 280000 |  |  |  |  |  |  | anti-GPC3 antibody with H chain constant region TH2 (Q175K) and L chain constant region TL17 (T180E, S131E, Q160E) (antibody, human IgG1, kappa, IgG1/kappa; also called TH2/TL17) heavy: not shown light: DIVMTQSPLSLPVTPGEPASISCQASESLVHSNRNTYLHWYLQKPGQSPQLLIYKVSNRFSGVPDRFSGSGSGTDFTLKISRVEAEDVGVYYCSQNTHVPPTFGQGTKVEIERTVAAPSVFIFPPSDEQLKSGTAEVVCLLNNFYPREAKVQWKVDNALQSGNSEESVTEQDSKDSTYSLSSTLELSKADYEKHKVYACEVTHQGLSSPVTKSFNRGEC
8 | 1.3 | 0.00036 | 270000 |  |  |  |  |  |  | anti-GPC3 antibody with H chain constant region G1d and L chain constant region k0 (GpH7-G1d / GpL16-k0) (antibody, human IgG1, kappa, IgG1/kappa; also called G1d/k0; native G1d/k0) heavy: not shown light: DIVMTQSPLSLPVTPGEPASISCQASESLVHSNRNTYLHWYLQKPGQSPQLLIYKVSNRFSGVPDRFSGSGSGTDFTLKISRVEAEDVGVYYCSQNTHVPPTFGQGTKVEIERTVAAPSVFIFPPSDEQLKSGTASVVCLLNNFYPREAKVQWKVDNALQSGNSQESVTEQDSKDSTYSLSSTLTLSKADYEKHKVYACEVTHQGLSSPVTKSFNRGEC
9 | 0.99 | 0.00038 | 390000 |  |  |  |  |  |  | anti-GPC3 antibody with H chain constant region TH15 (K147E, Q175E, K213E) and L chain constant region TL19 (T180K, S131K, Q160K, E123K) (antibody, human IgG1, kappa, IgG1/kappa; also called TH15/TL19) heavy: not shown light: DIVMTQSPLSLPVTPGEPASISCQASESLVHSNRNTYLHWYLQKPGQSPQLLIYKVSNRFSGVPDRFSGSGSGTDFTLKISRVEAEDVGVYYCSQNTHVPPTFGQGTKVEIERTVAAPSVFIFPPSDKQLKSGTAKVVCLLNNFYPREAKVQWKVDNALQSGNSKESVTEQDSKDSTYSLSSTLKLSKADYEKHKVYACEVTHQGLSSPVTKSFNRGEC
